The values below come from patent US8962569B2, “Compositions comprising spp24 peptide fragments” (The Regeants of the University of California, priority 2010, dated 2015).

Data set [1] addresses T1, BMP-2 (Homo sapiens, UniProt P12643).
T1 sequence (P12643 283-396): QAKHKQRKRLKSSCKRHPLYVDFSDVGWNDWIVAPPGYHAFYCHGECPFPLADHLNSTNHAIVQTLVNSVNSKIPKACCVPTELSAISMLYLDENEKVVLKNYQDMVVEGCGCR
To be noted: Behnam, 2005; cited from earlier work.

Data set [2] addresses T1, BMP-2. To be noted: cited from earlier work.
Another data set concerns A549. To be noted: Feeley, 2006; cited from earlier work.
Data set [3] in a line: Stability of IMAC-purified His6-spp24 on frozen storage (2D SDS-PAGE). In kind it is physicochemical. To be noted: stored frozen (−20° C., 3 months) in 8 M urea in the presence of protease inhibitors. As for the experimental part: The proteins in representative fractions containing His6-spp24 and its degradation products were separated by 2D SDS-PAGE by the method of O'Farrell (O'Farrell P. H., J. Biol. Chem., 250, 4007-4021 (1975)) (Nancy Kendrick, Ph.D., Kendrick Laboratories, Madison, Wis.) (Behnam, 2005, Behnam, 2006; Behnam, 2002; and Behnam and Murray, 2005). These fractions had been stored at −20° C. for 3 months in urea buffer plus protease inhibitors, resulting in the slow accumulation of degradation products similar to those previously reported (Urist, 1987) that are not abundant in freshly-prepared fractions. The gel was stained with Coomassie Brilliant Blue, and the three major spots of the appropriate molecular weight (<24 kDa) were selected, excised, eluted, reduced in 5% β-mercaptoethanol, alkylated, trypsin digested, and subjected to peptide mass fingerprint analysis by MALDI/ToF MS (Mary Ann Gawinowicz, Ph.D., Protein Chemistry Core Facility, Howard Hughes Medical Institute, Columbia University, New York, N.Y.) to verify their identities and structures (Behnam, 2005, Behnam, 2006, Behnam, 2002; and Behnam and Murray, 2005). Methionines were not oxidized. Peptides with a mass [M+H^+]>1000 Da were analyzed. The peptide fingerprint was compared to those in the SWISS-PRO and NCBI databanks (Behnam, 2005, Behnam, 2006; Behnam, 2002; and Behnam and Murray, 2005). […]

Data set [4] concerns A549 cells. The data set can be described thus: Subcutaneous implantation of A549 cells and direct measurement of tumor size. In kind it is in vivo, SCID mice. To be noted: 8 weeks after co-injection with A549 cells; rhBMP-2 10 μg, spp24 1000 μg; cells alone 127.4±117.5; mean±SE per method. The source says:
(§1) Forty, eight-week-old male SCID mice (weight 23.5 to 29.1 g, mean 27.1 g) were housed under pathogen-free conditions in accordance with the protocol approved by the Chancellor's Animal Research Committee (ARC) at the University of California, Los Angeles. There were four experimental groups in this study, and each group underwent implantation of cells in both a subcutaneous model and an intra-tibial injection. Group I animals received A549 cells alone as a control group. […] Group III received an A549 cells+spp24 (1000 μg). […] There were 10 animals in each group.

Data set [5] has as its system A549 cells. The data set can be described thus: Intratibial implantation of A549 cells and radiographic analysis. In kind it is in vivo, SCID mice. To be noted: 8 weeks.
Excerpt: as §1

In data set [6] the test system is A549 human non-small cell lung cancer cells. Nature of the data set: A549 cell proliferation assay (Quick Cell Proliferation Assay). It is filed as cell-based. To be noted: 48 h. As for the experimental part:
The human non-small cell lung cancer (NSCLC) cell line A549 was used in this study (ATCC, Manassas, Va., USA). A549 cells were maintained in DMEM with 10% FBS and antibiotics (Fisher scientific, Pittsburgh, Pa.) in a humidified incubator with 5% CO2 at 37° C. Cells were not used beyond 10 passages. Cells were plated in serum free medium at a density of 10,000 cells/well and allowed to attach for 24 h. […] Recombinant spp24 was prepared as described previously (Murray E J B, et al., Connect Tiss Res 2007; 48:1-8) and added in serum-free media to final concentrations of 10, 25, 50, 75 μg/ml. Cells were incubated for 48 h before cell proliferation was assessed using Quick Cell Proliferation Assay (BioVision, Mountain View, Calif., USA) according to manufacturer's recommendations. Results were reported as a percentage compared with untreated cells.

Data set [7] can be described thus: Proteolysis of recombinant spp24 by MC3T3-E1 cell extracts (SDS-PAGE, anti-His6 Western blot). It is filed as in vitro ADME, mouse. To be noted: 37° C.; for time to essentially complete degradation of His6-spp24: presence of 4 mM calcium, MC3T3-E1 cell extracts. As for the experimental part: MC3T3-E1 mouse preosteoblastic cells were cultured to confluence, harvested by trypsinization, pelleted by centrifugation, and suspended in digestion buffer (100 mM HEPES-HCl, pH 7.5, 12.5 mM KCl, 6.25 mM (3-mercaptoethanol, and 0.2% Triton X-100) plus or minus 4 mM CaCl2 at a protein concentration of 2.4 mg/ml. Recombinant spp24 (residues 23 to 204) was exhaustively dialyzed vs. water, lyophilized, and resuspended at 1 mg/ml in digestion buffer (plus or minus 4 mM CaCl2). Equal volumes of cell extract and spp24 were combined, and incubated at 37° C. for 0 to 24 hours. At the intervals indicated, 4 μl aliquots equivalent to 2 μg spp24 were removed, subjected to SDS-PAGE, and Western blotted using antibody directed against the His6 tag as outlined in detail above.
In general terms: Immunoblotting shows a protein as a band on a membrane.

The subject of data set [8] is A549 cells. The data set can be described thus: Histologic and histomorphometric analysis of A549 tumors (subcutaneous and tibiae). In kind it is in vivo, SCID mice.
Excerpt: as §1
Animals were killed at 8 weeks (or earlier if required by an excessive tumor size) and both the soft tissue tumor and the hind limb were harvested for histological analysis. Soft tissue tumors were fixed in 10% buffered formalin. The tibias were fixed in 10% buffered formalin followed by decalcification in a solution of 10% EDTA for 2 weeks at room temperature with gentle stirring. Longitudinal sections of the proximal tibia were prepared and stained with H&E. For histologic and histomorphometric analyses, all microscopic slides were scanned with a ScanScope GL (Aperio Technologies, Inc., Vista, Calif.) equipped with a 20× objective. The following parameters were considered in the qualitative analysis: amount of tumor cells between cortices from the proximal tibia; anterior and posterior cortical destruction and remodeling; new bone formation within the medullary canal; and anterior/posterior extension of bone formation outside the medullary canal. These histologic findings were graded with the following scale: 0 (none), 1 (mild), 2 (moderate), 3 (intense). Bone volume and tumor volume, expressed as a percentage of total tissue volume (% BV/TV and % TuV/TV, respectively) were quantified in whole-slide images using Spectrum software (Aperio Technologies, Inc. Vista, Calif.).

Setting [9] is: tibiae, grade 0 (none) to 3 (intense), mean.

Regarding “BBP: synthetic cyclic 19 amino acid peptide of the TRH1 domain of bovine spp24, CRSTVRMSAEQVQNVWVRC (SEQ ID NO: 8) [reference compound]”, the “binding of BMP-2” value with BMP-2 [1] is given as “specifically binds BMP-2”. The “effect on BMP-2-induced ectopic bone formation in vivo” value in the data set with BMP-2 [2] (Behnam, 2005) is “enhances the rate and magnitude of BMP-2-induced ectopic bone formation in vivo”.

B1: noggin: an inhibitor of BMPs (protein, UniProt Q13253 28-232, looked up)
Noggin: QHYLHIRPAPSDNLPLVDLIEHPDPIFDPKEKDLNETLLRSLLGGHYDPGFMATSPPEDRPGGGGGAAGGAEDLAELDQLLRQRPSGAMPSEIKGLEFSEGLAQGKKQRLSKKLRRKLQMWLWSQTFCPVLYAWNDLGSRFWPRYVKVGSCFSKRSCSVPEGMVCKPSKSVHLTVLRWRCQRRGGQRCGWIPIQYPIISECKCSC
On to B1, for which the “effect on tumor growth” value in the data set with A549 is recorded as “reduce tumor growth”.

B2: spp24: recombinant His6-tagged bovine secreted phosphoprotein-24 kDa, residues 24 to 203 (SEQ ID NO:1), expressed in E. coli (protein)
chain: MHHHHHHFPVYDYDPASLKEALSASVAKVNSQSLSPYLFRAFRSSVKRVNALDEDSLTMDLEFRIQETTCRRESEADPATCDFQRGYHVPVAVCRSTVRMSAEQVQNVWVRCHWSSSSGSSSSEEMFFGDILGSSTSRNSYLLGLTPDRSRGEPLYEPSREMRRNFPLGNRRYSNPWPRARVNPGFE
modifications: N-terminal Met-His6 tag; Synthetic spp24
Regarding B2, in [3], the “susceptibility to proteolysis on storage” value is given as “highly susceptible to proteolysis”. This molecule yielded a subcutaneous tumor volume with A549 cells [4] of 12.6±21.6 mm3. Besides, in the data set on A549 cells [5], the “animals with minimal new bone formation” value is reported as “three of ten”. Further, in the data set on A549 cells [5] (score 0 normal to 3 obliteration of two cortices, cells alone 2.1), the average radiographic score was 0.5±0.6. Further, the “effect on A549 cell proliferation” value in data set [6] (agent alone, serum-free media, rhBMP-2 0-500 ng/ml, spp24 10-75 μg/ml) was “slight dose-dependent inhibition of proliferation”. Further, in [6] (spp24 added to the BMP treatment), the “effect of spp24 on BMP-stimulated A549 proliferation” value is recorded as “attenuation of the BMP affect at all doses”. Also, in data set [7] (absence of added calcium, 0 to 24 hours), the “degradation of His6-spp24 by MC3T3-E1 cell extracts” value is “essentially no degradation was observed until 24 hr”. For the same molecule, the “time to essentially complete degradation of His6-spp24” value in data set [7] is at most 2 h. The “time to essentially complete degradation of His6-spp24” value in [7] (listed as His6-spp24) is listed as “about 2 hours”. In addition, in the data set on A549 cells [8] (longitudinal section of the proximal tibia at midline, mean), the “% TuV/TV (tumor volume/total volume)” value is “insufficient”. In the data set with A549 cells [8] (subcutaneous and intratibial sites, 8 weeks), the “tumor cells in histological specimens” value was “only a few scattered tumor cells”. The “% BV/TV (bone volume/total volume)” value with A549 cells [8] (tibia section, mean) is listed as “insufficient”. In the data set on A549 cells [8] (setting [9]), the “Anterior cortex destruction (2)” value is listed as 0, the “Extension of bone formation outside the medullary canal (5)” value is recorded as 0, the “New bone formation within the medullary canal (4)” value is listed as 0 and the “Posterior cortex destruction (3)” value was 0. Further, the “Amount of tumor cells between cortices (1)” value in the data set with A549 cells [8] (tibiae, grade 0 (none), 1 (mild), 2 (moderate), 3 (intense), mean) was 0. For the same molecule, the “effect on BMP-2 induced bone formation” value in the data set with BMP-2 [2] (ectopic bone forming assay (Sintuu, 2008)) was “strongly inhibits BMP-2 induced bone formation”.
